Patent publication US20190382504A1 (EUREKA THERAPEUTICS, published 2019)

Columns and labels:
[1] = target: ESO157 A5 peptide (…)/HLA-A*02:01 complex on T2 cells (human); assay: FACS, peptide-pulsed T2 cells
[2] = target: ESO157 A3 peptide (…)/HLA-A*02:01 complex on T2 cells (human); assay: FACS, peptide-pulsed T2 cells
[3] = target: ESO157 A6 peptide (…)/HLA-A*02:01 complex on T2 cells (human); assay: FACS, peptide-pulsed T2 cells
[4] = target: ESO157 A7 peptide (…)/HLA-A*02:01 complex on T2 cells (human); assay: FACS, peptide-pulsed T2 cells
[5] = target: ESO157 A1 peptide (…)/HLA-A*02:01 complex on T2 cells (human); assay: FACS, peptide-pulsed T2 cells
[6] = target: T1, HLA-A*02:01 on T2 cells without peptide loading (human); assay: FACS, peptide-pulsed T2 cells
T1 construct: TAP-deficient T2 cells, no peptide added; also called No peptide; T2 cells with no peptide loaded

[7] = target: ESO157 A4 peptide (…)/HLA-A*02:01 complex on T2 cells (human); assay: FACS, peptide-pulsed T2 cells
[8] = target: ESO157 A8 peptide (…)/HLA-A*02:01 complex on T2 cells (human); assay: FACS, peptide-pulsed T2 cells
Bio-C9V mutant = target: T2, Bio-C9V mutant; assay: phage ELISA: streptavidin plate coated with biotinylated peptide/HLA-A*02:01 monomer, phage detected with HRP-conjugated anti-M13 antibody, absorbance at 450 nm
T2 construct: also called biotinylated ESO157 C9V/HLA-A*02:01 complex monomer

[9] = target: biotinylated recombinant ESO157/HLA-A*02:02 complex (human); assay: BLI (Octet QK), biotinylated pMHC on streptavidin sensor, BsAb 10 ug/mL
[10] = target: biotinylated recombinant ESO157/HLA-A*02:06 complex (human); assay: as above
[11] = target: T3, ESO157 wild type peptide (…)/HLA-A*02:01 complex on cells (human); assay: FACS, peptide-pulsed T2 cells
T3 construct: also called ESO157-loaded T2 cells

[12] = target: T4, ESO157 homolog 2 peptide (…)/HLA-A*02:01 on T2 cells (human); assay: FACS, phage on T2 cells, 50 ug/ml peptide;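 also: binding of phage clones to peptide/MHC complexes detected by flow cytometry after staining with an anti-M13 antibody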
T4 construct: also called ESO157 H2

[13] = target: T5, ESO157 homolog 5 peptide (…)/HLA-A*02:01 on T2 cells (human); assay: FACS, phage on T2 cells, 50 ug/ml peptide;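 also: binding of phage clones to peptide/MHC complexes detected by flow cytometry after staining with an anti-M13 antibody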
T5 construct: also called ESO157 H5

[14] = target: T6, ESO157 homolog 1 peptide (…)/HLA-A*02:01 on T2 cells (human); assay: FACS, phage on T2 cells, 50 ug/ml peptide;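 also: binding of phage clones to peptide/MHC complexes detected by flow cytometry after staining with an anti-M13 antibody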
T6 construct: also called ESO157 H1

[15] = target: T7, ESO157 homolog 3 peptide (…)/HLA-A*02:01 on T2 cells (human); assay: FACS, phage on T2 cells, 50 ug/ml peptide;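 also: binding of phage clones to peptide/MHC complexes detected by flow cytometry after staining with an anti-M13 antibody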
T7 construct: also called ESO157 H3

[16] = target: T8, ESO157 homolog 4 peptide (…)/HLA-A*02:01 on T2 cells (human); assay: FACS, phage on T2 cells, 50 ug/ml peptide
T8 construct: also called ESO157 H4

Binder	MFI [12]	MFI [13]	MFI [14]	MFI [15]	MFI [16]	also measured
phage clone #148, anti-ESO157/HLA-A*02:01 scFv displayed on phage (scFv, V domains shown) VH: EVQLVQSGAEVKKPGASVKVSCKASGGTFSSYAISWVRQAPGQGLEWMGGIIPIFGTANYAQKFQGRVTITADKSTSTAYMELSSLRSEDTAVYYCARSYWSWTPYDPWGQGTLVTVSS VL: LPVLTQPPSVSVAPGKTARITCGGNNIGSKSVHWYQQKPGQAPVLVIYYDSDRPSGIPERFSGSNSGNTATLTISRVEAGDEADYYCQVWDSSSDHYVFGTGTKVTVLG	–	–	–	–	–	MFI [1]: 14200; MFI [2]: 52900; MFI [3]: 17500; MFI [4]: 62400; MFI [5]: 27700; MFI [6]: 208; MFI [7]: 240; MFI [8]: 58300; binding result (Bio-C9V mutant): binds
ESO157 BsAb #116 (anti-ESO157/HLA-A*02:01 scFv x anti-human CD3epsilon scFv, single chain) (bispecific antibody) QSVLTQPPSVSAAPGQKVTISCSGSSSNIGNNYVSWYQQLPGTAPKLLIYDNNKRPSGIPDRFSGSKSGTSATLGITGLQTGDEADYYCGTWDSSLSAEVFGTGTKVTVLGSRGGGGSGGGGSGGGGSLEMAQVQLVQSGPEVKKPGASMKVSCKASGYTFTKYGISWVRQAPGQGLEWMGWISADSGKTSYAQNLQGRVSLTIDTSTATAYMELRSLRSDDTAVYYCARDDDSWGQGTLVTVSS	–	–	–	–	–	Kd [9]: 1.8 nM; Kd [10]: 0.8 nM
phage clone #35, anti-ESO157/HLA-A*02:01 scFv displayed on phage (scFv, V domains shown, also called parental phage clone #35) VH: QVQLVQSGAEVKKPGSSVKVSCKASGDTFSSYSISWVRQAPGQGLEWMGRIIPILGIANYAQKYQGRVTLSADKSTSTSYMELNSLRSEDTAVYYCARDWSYSIDYWGQGTLVTVSS VL: QSVVTQPPSVSAAPGQKVTISCSGSSSNIGNNYVSWYQQLPGTAPKLLIYDNNKRPSGIPDRFSGSKSGTSATLGITGLQTGDEADYYCGTWDSSLSAWVFGGGTKLTVLG	17.6	13.4	–	–	–	MFI [1]: 163; MFI [2]: 10200; MFI [4]: 419; MFI [11]: 17500; MFI [5]: 42400; MFI [7]: 155
phage clone 35-20, affinity maturation variant of clone #35 (scFv, V domains shown) VH: QVHLVQSGAEVKKPGSSVKVSCKASGDTFSSYYISWVRQAPGQGLEWMGRIIPILGIANYAQKYQGRVTLSADKSTSTSYMELNSLRSEDTAVYYCARDWSYSIDYWGQGTLVTVSS VL: QSVVTQPPSVSAAPGQKVTISCSGSSSNIGNNYVSWYQQLPGTAPKLLIYDNNKRPSGIPDRFSGSKSGTSATLGITGLQTGDEADYYCGTWDSSLSAWVFGGGTKLTVL	–	19	21	20.8	20.6	–
phage clone 35-16, affinity maturation variant of clone #35 (scFv, V domains shown) VH: QVQLVQSGAEVKKPGSSVKVSCKASEDTFSSYYISWVRQAPGQGLEWMGRIIPTLGIANYAQKYQGRVTLSADKSTSTSYMELNSLRSEDTAVYYCARDWSYSIDYWGQGTLVTVSS VL: QSVVTQPPSVSAAPGQKVTISCSGSSSNIGNNYVSWYQQLPGTAPKLLIYDNNKRPSGIPGRFSGSKSGTSATLGITGLQTGDEADYYCGTWDSSLSAWVFGGGTKLTVLG	–	18.7	–	18.7	19.3	–
phage clone 35-8, affinity maturation variant of clone #35 (scFv, V domains shown) VH: QVPLVQSGAEVKKPGSSVKVSCKASGDTFSSYYISWVRQAPGQGLEWMGRIIPILGIANYAQKYQGRVTLSADKSTSTSYMELNNLRSEDTAVYYCARDWSYSIDYWGQGTLVTVSS VL: QSVVTQPPSVSAAPGQKVTISCSGSSSNIGNNYVSWYQQLPGTAPKLLIYDNNKRPSGIPDRFSGSKSGTSATLGITGLQTGDEADYYCGTWDSSLSAWVFGGGTKLTVL	18.7	17.8	–	–	19.6	–
phage clone 35-12, affinity maturation variant of clone #35 (scFv, V domains shown) VH: QVPLVQSGAEVKKPGSSVRVSCKASGDTFSNYSISWVRQAPGQGLEWMGRIIPILGIANYAQKYQGRVTLSADKSTSTSYMELNSLRSEDTAVYYCARDWSYSIDYWGQGTLVTVSS VL: QSVVTQPPSVSAAPGQKVTISCSGSSSNIGNNYVSWYQQLPGTAPKLLIYDNNKRPSGIPDRFSGSKSGTSTTLGITGLQTGDEADYYCGTWDSSLSAWVFGGGTKLTVLG	19.2	17.7	19.3	18.6	18.7	–
phage clone 35-19, affinity maturation variant of clone #35 (scFv, V domains shown, also called variant 35-19) VH: QEQLVQSGAEVKKPGSSVKVSCKASGDTFSSYYISWVRQAPGQGLEWMGRIIPILGIANYAQKYQGRVTLSADKSTSTSYMELNSLRSEDTAVYYCARDWSYSIDYWGQGTLVTVSS VL: QSVVTQPPSVSAAPGQKVTISCSGSISNIGNNYVSWYQQLPGTAPKLLIYDNNMRPSGIPDRFSGSKSGTSATLGITGLQTGDEADYYCGTWDSSLSAWVFGGGTKLTVLG	21.9	60.2	20.7	21.7	21.6	–
phage clone 35-2, affinity maturation variant of clone #35 (scFv, V domains shown) VH: QVQLVQSGAEVKKPGSSVKVSCKASGDTFSSYYISWVRQAPGQGLEWMGRIIPILGIANYAQKYQGRVTLSADKSTSTSYMELNSLRSEDTAVYYCARDWSYSIDYWGQGTLVTVSS VL: QSVVTQPPSVSAAPGQKVTISCSGSSSNIGNNYVSWYQQLPGTAPKLLIYDNNERPSGIPDRFSGSKSGTSATLGITGLQTGDEADYYCGTWDSSLSAWVFGGGTKLTVLG	20.8	18.8	–	–	21	–
phage clone 35-15, affinity maturation variant of clone #35 (scFv, V domains shown) VH: QVQLVQSGAEVKKPGSSVKVSCKASGDTFSSYYISWVRQAPGQGLEWMGRIIPILGIANYAQKYQGRVTLSADKSTSTSYMELNSLSSEDTAVYYCALDWSYSIDYWGQGTLVTVSS VL: QSVVTQPPSVSAAPGQKVTISCSGSSSNIGNNYVSWYQQLPGTAPKLLIYDNNKRPSGIPDRFSASKSGTSATLGITGLQTRDEADYYCGTWDSSLSAWVFGGGTKLTVLG	–	31.8	36.2	35.4	33.8	–
phage clone 35-14, affinity maturation variant of clone #35 (scFv, V domains shown) VH: QVQLVQSGAEVKKPGSSVKVSCKASGDTFSSYYISWVRQAPGQGLEWMGRIIPILGIANYAQKYQGRVTLSADKSTSTSYMELNSLRSEDTAVYYCAREWSYSIDYWGQGTLVTVSS VL: QSVVTQPPSVSAAPGQKVTISCSGSSSNIGNNYVSWYQQLPGTAPELLIYDNNKRPSGIPDRFSGSKSGTSATLGITGLQTGDEADYYCGTWDSSLSAWVFGGGTKLTVL	19.8	18.8	20.8	20	19.5	–
phage clone 35-3, affinity maturation variant of clone #35 (scFv, V domains shown) VH: QVQLVQSGAEVKKPGSSVKVSCKASGDTFSSYYISWVRQAPGQGLEWMGRIIPILGIANYAQKYQGRVTLSADKSTSTSYMELNSLRSEDTAVYYCAREWSYSIDYWGQGTLVTVSS VL: QSVVTQPPSVSAAPGQKVTISCSGSSSNIGNNYVSWYQQLPGTAPKLLIYDNNKRPSGIPDRFSGSKSGTSATLGITGLRTGDEADYYCGTWDSSLSAWVFGGGTKLTVLG	18.4	18.5	18.8	18.9	19	–
phage clone #146, anti-ESO157/HLA-A*02:01 scFv displayed on phage (scFv, V domains shown) VH: EVQLVQSGAEVKKPGASVKVSCKVSGYTLTDLPMHWVRQAPGKGLEWMGGFDPEDGEIIYAQKFQGRVTMTEDTFTDTAYVELSSLRSEDTAVYYCARYVPYVSYSDSWGQGTLVTVSS VL: not shown	–	–	–	–	–	MFI [1]: 180; MFI [2]: 181; MFI [4]: 333; MFI [5]: 9300; MFI [6]: 132; MFI [7]: 3200; MFI [8]: 18600; binding result (Bio-C9V mutant): binds
phage clone #76, anti-ESO157/HLA-A*02:01 scFv displayed on phage (scFv, V domains shown) VH: EVQLVQSGAEVKKPGSSVKVSCKASGGTFSSYAISWVRQAPGQGLEWMGGIIPIFGTANYAQKFQGRVTITADESTSTAYMELSSLRSEDTAVYYCARYDSYVYDEWGQGTLVTVSS VL: QSVVTQPPSLSGAPGQRVTISCNGSGSNIGAGYDVHWYQQLPGTAPKLLIYGNSNRPSGVPDRFSGSKSGTSASLAITGLQAEDEADYYCQSYDSSLSGWGIFGGGTKLTVLG	–	–	–	–	–	MFI [1]: 160; MFI [2]: 42900; MFI [4]: 6200; MFI [11]: 7460; MFI [5]: 14600; MFI [6]: 131; MFI [7]: 191; MFI [8]: 12700; binding result (Bio-C9V mutant): binds
